Measurements from the supplement of paper PMC9170038.

Tested on: K4 kissing-loop RNA reporter
Experiment: apparent KD of K4 kissing-loop reporter; higher = weaker reporter binding
Settings: Eterna round: R107
Procedure: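 RNA-MaP round R107: designed RNA switches with theophylline, tryptophan, arginine or FMN aptamers are transcribed on-chip within common flanks. They are titrated with a labelled K4 kissing-loop RNA reporter in RNA-MaP buffer (100 mM Tris pH 7.5, 80 mM KCl, 4 mM MgCl2), without ligand or with the indicated ligand. Median apparent KD per design.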

[1] = input ligand: theophylline 20 uM
[2] = input ligand: tryptophan 2.4 mM
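Further: bound reporter read as fluorescence of individual clusters on recovered sequencing chips by microscopy, with normalized cluster intensities fitted with a binding model.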

| Sequence | apparent KD of K4 kissing-loop reporter (input ligand: FMN 200 uM) [µM] | apparent KD of K4 kissing-loop reporter (input ligand: arginine 13.2 mM) [µM] | apparent KD of K4 kissing-loop reporter (input ligand: none) [µM] | apparent KD of K4 kissing-loop reporter [1] [µM] | apparent KD of K4 kissing-loop reporter [2] [µM] |
| --- | --- | --- | --- | --- | --- |
| UGAUACCAGACUGAUACCAGCCAGUGAUGUUGGCUAAGCCAAAUAGGAGUCAAAGACUCCGGCCCUUGGCAGCAGUCUGGUAUCU [TheoBX 5 #SwitchBubble #StaticStem] | 0.127 | 0.117 | 0.122 | 0.124 | 0.127 |
| UGAUAGGACAGAAGGAGCGGAAGUGAUGUUUCCAAAUGGAAUAAGGUGUCAAAGACACCCUUCCAGGUAGGUCGCUGUCCUAUCU [ArgBX 15 #Palindromic #SwitchBubble #StaticStem] | 0.147 | 0.175 | 0.14 | 0.161 | 0.128 |
| UGAUAGGACAGAAGGAGCGGAGCUGGUCAAAGACCAGCAAUAACGUUGAAAGGAGUGAUGUUCCAGGUAGGUCGCUGUCCUAUCU [ArgBX 26 #SwitchBubble #StaticStem] | 0.121 | 0.13 | 0.12 | 0.163 | 0.0937 |
| UGAUAGGACAGAAGGAGCGGGAGUGAUGUUCCCAAAGGAAGGUCUAGCAAAGCUGGACCCUCCCAGGUAGGUCGCUGUCCUAUCU [ArgBX 4 #SwitchBubble #StaticStem] | 0.129 | 0.123 | 0.124 | 0.155 | 0.118 |
| UGAUAGGACAGAAGGAGCGGGAGUGAUGUUCCCAAUAGGAGGUCUAGCAAAGCUGGACCCUCCCAGGUAGGUCGCUGUCCUAUCU [ArgBX 3 #SwitchBubble #StaticStem] | 0.102 | 0.115 | 0.0961 | 0.115 | 0.108 |
| UGAUAGGACAGAAGGAGCGGUAGUGAUGUUACCAAAAGGGUAAGGUGUCAAAAGACACCCUACCAGGUAGGUCGCUGUCCUAUCU | 0.11 | 0.096 | 0.104 | 0.0843 | 0.0828 |
| UGAUAGGACAGAAGGAGCGGUAGUGAUGUUACCAAAAGUAUAAGGUGUCAAAAGACACCCUGCCAGGUAGGUCGCUGUCCUAUCU | 0.157 | 0.21 | 0.178 | 0.198 | 0.152 |
| UGAUCAACAUCUGAUACCAGUCGCUCGAGUAAUCAACCGUGGCUAGUGAUGUUGGCUUUUGACCCUUGGCAGCAGAAUCGUGUCA [theeternabot_sameState_KL_Theo_B_20] | 0.134 | 0.131 | 0.112 | 0.189 | 0.12 |
| UGAUCUCGGCAGUGAUGUUGCAUAUGAGAAGGAGCGCACGAAAGUGCAGGUAGGUCGCUCAGCCACGACGAAAGUCGCGAGAUCU [#SwitchBubble 3 #K4Early] | 0.137 | 0.259 | 0.155 | 0.238 | 0.129 |
| UGAUUUAACUGAAGGAGCGGCAAUUGAGAAGGAAAUAUAGUGAUGUUAUAUAAGAGAGAGAGCCAGGUAGGUCGCAGAGGGAGGA [ExArgB.G] | 0.185 | 0.131 | 0.152 | 0.198 | 0.118 |
| UGCACCAGUGAUGUUGGUCGGCACCGAGAUACCAGCUGAUCUCUUAGCCCUUGGCAGCUCUUUAUUCGCGUUAUCAGUUUCUUCG [theeternabot_sameState_KL_Theo_A_16] | 0.428 | 0.368 | 0.464 | 0.416 | 0.345 |
| UGCAUGCUUAGAGUGAUGUUCUAAGAUGAUACCAGUGCUUUUUUGCACCCUUGGCAGCGUCUGAUUGCAUGCACGUCGAAAGACG | 0.288 | 0.287 | 0.279 | 0.266 | 0.289 |
| UGCCCGCGCGAAGGAUAUGAGAGCUUGUCUGUCCAGUGAUGUUGGAGGUUGGUGAUUUGCUAGGCGUCAGAAGGUCGAGCUUAUA [theeternabot_sameState_KL_FMN_B_14] | 0.192 | 0.0944 | 0.153 | 0.15 | 0.133 |
| UGCCGGAAGGCGAGCGCUCCCACUCCGGAAGGAGCGCCCGUAAGGGCAGGUAGGUCGCCGGAGUGAUGUUCCGGUGGAGGGCUCG [#2 Exclusion - Arginine A Attempt #22 (Inspired by Omei)] | 0.203 | 0.128 | 0.193 | 0.185 | 0.244 |
| UGGACAUGACUCGAUAAGAGUCAAUGAGAUACCAGUGACGAAAGUCACCCUUGGCAGCUCAACUGCCAGUGAUGUUGGUAGUCCU [#SwitchBubble #StaticStem] | 0.739 | 0.424 | 0.742 | 0.793 | 0.566 |
| UGGACCGCCUGAGGAUAUAGGGACGAGUGAUGUUCGUGGACCAGAGCCAGUGAUGUUGGGUUAUUUCUAGAAGGCGGGCGAACUU [Exclusion FMN B GF11] | 0.12 | 0.167 | 0.188 | 0.154 | 0.146 |

| Sequence | apparent KD of K4 kissing-loop reporter (input ligand: FMN 200 uM) [µM] | apparent KD of K4 kissing-loop reporter (input ligand: arginine 13.2 mM) [µM] | apparent KD of K4 kissing-loop reporter (input ligand: none) [µM] | apparent KD of K4 kissing-loop reporter [1] [µM] | apparent KD of K4 kissing-loop reporter [2] [µM] |
| --- | --- | --- | --- | --- | --- |
| UGGACCUGACUCGAUAAGAGUCAAUGAGAUACCAGUGACGAAAGUCACCCUUGGCAGCUCCUGCCAGUGAUGUUGGUAAGGUCCU [#SwitchBubble 4 #StaticStem] | 0.416 | 0.252 | 0.437 | 0.575 | 0.299 |
| UGGAGUUGACGAAAAGUCAACUCCUGAGAUACCAGUGACGAAAGUCACCCUUGGCAGCUCACUGCCAGUGAUGUUGGAAAAUAAA [#OpenEnded 1] | 0.527 | 0.295 | 0.238 | 0.204 | 0.387 |
| UGGAGUUGACGAAAAGUCAACUCCUGAGAUACCAGUGACGAAAGUCACCCUUGGCAGCUCACUGGCAGUGAUGUUGCUAAAUAAA [KL-SSTheo-A2] | 0.0573 | 0.0514 | 0.122 | 0.0635 | 0.0326 |
| UGGAGUUGACGAAAAGUCAACUCCUGAGAUACCAGUGACGAAAGUCACCCUUGGCAGCUCACUGGCAGUGAUGUUGCUAUAUAAA [KL-SSTheo-A3] | 0.0855 | 0.0689 | 0.0953 | 0.211 | 0.101 |
| UGGAGUUGACGAAAAGUCAACUCCUGAGAUCGAGGACCGGUACGGCCGCCACUCGAGCUAACUGCGAGUGAUGUUCGAAAAUAAA [#OpenEnded 1 - Direct theophylline transfer] | 0.191 | 0.313 | 0.235 | 0.393 | 0.0971 |
| UGGAUAUAGUGAUGUUAUAUAGAGAUGGAUACCAGCUAAGAGAAUGGCCCUUGGCAGCCGAAAGAAGUAUCAUUAGAGAAGAAUG [ExTheophyl.Ag] | 0.261 | 0.249 | 0.259 | 0.276 | 0.214 |
| UGGAUAUAGUUUAGUCUGGUGAGGUCAGAUACCAGACUAGCGAUAGUCCCUUGGCAGCUGAUUAUGAUUGAGUGAUGUUCAAUCG [Theo A Ex t9] | 0.187 | 0.151 | 0.17 | 0.157 | 0.157 |
| UGGGAUGUUAAAGGAUAUAGCAGAUGAUACAAGAAAGUGAGUGAUGUUUAUGUAGAUGAUGAUAUGUUAGAAGGUUAACAAAACG [abcdefghijk] | 0.625 | 0.595 | 0.754 | 0.715 | 0.544 |
| UGGUUCAAUACGGCCGCCACUGGUGAGUGAUGUUUACCGUCUAUAUCAUGUGUCGAGAGCGCUAUCAGGACCGGGUAGGGACCGU [theeternabot_exclusion_KL_Trp_B_42] | 0.673 | 0.396 | 0.721 | 0.837 | 0.458 |
| UGUAAUGGCUGAGCAGCCGUGGUACGAGAUACCAGUGAUUUCGAUCACCCUUGGCAGCUCGGCGUGAGUGAUGUUCACGCUACAC [Theo A SS t12] | 0.201 | 0.199 | 0.203 | 0.207 | 0.199 |
| UGUACCGAGUCAGGAUAUGAACGACUGACAAAAGUCGGUCGAAUAUCCAGUGAUGUUGGAAAUAAAUCAGAAGGGACUUGGUACU [FmnBS 15 #SwitchBubble #StaticStem] | 0.13 | 0.805 | 0.974 | 0.84 | 0.726 |
| UGUACCGAGUCAGGAUAUGUCGUCGAAAGACGAAAUGGAGUGAUGUUCCUUAAACUGCGAAAGCAGACAGAAGGGAUUUGGUACU [FmnBS 29 U77] | 0.207 | 0.654 | 0.739 | 0.738 | 0.717 |
| UGUACUAUUGUGAGUGAUGUUCACUUCGAUACCAGCAGAGCGAUCUGCCCUUGGCAGCGAGUUAACUGCCGAAAGGCAAGGAUUA [Theo B SS t9] | 0.535 | 0.528 | 0.546 | 0.546 | 0.378 |
| UGUAUGUGAUUUGAUACCAGACCAGCUGGUGGAUCACGAGUGAUGUUCGUGUUGGUUUGGGUCCCUUGGCAGCAAAUCGCAUACU [KL-SSTheoB13] | 0.218 | 0.151 | 0.18 | 0.131 | 0.166 |
| UGUAUUUCGGCGGCCGCCACUGACCAUAGCCUUCGAUGGCCAGUGAUGUUGGCCUCUGGCUCUAACAGGACCGGGCCGAAUUGCG [Usvediin] | 0.303 | 0.165 | 0.19 | 0.168 | 0.132 |
| UGUCAUGGAAACAUGAACGUUGAAAUAAAUCGAGGACCGGUACGGCCGCCACUCGUAUAGCGGUCAGUGAUGUUGACUGUAAUAA [KL-SSTryp-A form2 sub9] | 0.0949 | 0.112 | 0.11 | 0.132 | 0.0987 |
